The target in assay [1] is FcγRIIIa on human PBMCs, heterozygous V158/F158 (human) (UniProt P08637). Nature of the assay: cell-based or functional assay.
In assay [2] the target is human V158 FcγRIIIa extracellular region fused with GST (human) (UniProt P08637). Kind of assay: AlphaScreen competition. (In general: In Alpha technology, singlet oxygen from a donor bead excites a nearby acceptor bead.)
The target in assay [3] is FcγRIIIa on human PBMCs, homozygous F158/F158 (human) (UniProt P08637). Kind of assay: cell-based or functional assay.
Assay [4] addresses F158 FcγRIIIa used in SPR (human) (UniProt P08637). Nature of the assay: SPR. On the technique in general: SPR reads the build-up and loss of mass on a sensor chip optically.
Assay [5] deals with His-tagged V158 FcγRIIIa (human) (UniProt P08637). Nature of the assay: SPR, His-tagged receptor immobilized, antibody flowed.

In assay [1], alemtuzumab V264I/I332E (antibody) gave an ADCC EC50 (DoHH-2 target cells, human PBMCs) of 4 ng/mL.

In assay [2], alemtuzumab A298H (antibody) came in with a Fold vs WT of 0.27 fold.

For the substance wild-type rituximab (antibody), in assay [3], the ADCC EC50 (WIL2-S target cells, human PBMCs) turned out to be 1.7 ng/mL.

For “alemtuzumab V264I/N297D/I332E (antibody)”, the Fold vs WT in assay [2] amounted to 0.05 fold.

Consider wild-type alemtuzumab (antibody), for which the figures for the Kd in assay [4] and in assay [5] were 0.73 µM and 0.068 µM, respectively. Also, the ADCC EC50 (DoHH-2 target cells, human PBMCs) in assay [1] was 9.9 ng/mL.

alemtuzumab S239D/I332E (antibody) yielded an ADCC EC50 (DoHH-2 target cells, human PBMCs) in assay [1] of 3 ng/mL.
